Assay results taken from the supplement of paper PMC7125110.
± gives the standard error. This sample holds only a part of the variants without activity.

B1: glmS ribozyme (parent)
chain: AUAAAAGCGCCAGAACUACAGAAAUGUAGUUGACGAGGAGGAGGUUUAUCGAAUUUUCGGCGGAUGCCUCCAAA

Assays:
Details in all cases: with glucosamine-6-phosphate
glucosamine-6-phosphate [1] = variants of: B1; experiment: self-cleavage kobs at 40 uM GlcN6P; higher = faster cleavage; RNA array
Summary of the method: (§1)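 Ribozyme variants carrying barcodes were transcribed in situ on sequenced MiSeq chips by E. coli RNA polymerase and tracked at 37 °C with a hybridised Cy3 probe. They were exposed to 40 μM to 10 mM glucosamine-6-phosphate in HEPES/KCl/Mg(OAc)2 buffer. kobs came from exponential decay fits of normalised per-tile medians, and kcat and KM from weighted Michaelis–Menten fits.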

glucosamine-6-phosphate [2] = variants of: B1; experiment: self-cleavage kobs at 160 uM GlcN6P; higher = faster cleavage; RNA array
Summary of the method: as §1

glucosamine-6-phosphate [3] = variants of: B1; experiment: self-cleavage kobs at 640 uM GlcN6P; higher = faster cleavage; RNA array
Summary of the method: as §1

glucosamine-6-phosphate [4] = variants of: B1; experiment: self-cleavage kobs at 10000 uM GlcN6P; higher = faster cleavage; RNA array
Summary of the method: as §1

glucosamine-6-phosphate [5] = variants of: B1; experiment: self-cleavage kobs at 2500 uM GlcN6P; higher = faster cleavage; RNA array
Summary of the method: as §1

Variant	self-cleavage kobs at 40 uM GlcN6P (glucosamine-6-phosphate [1])	self-cleavage kobs at 160 uM GlcN6P (glucosamine-6-phosphate [2])	self-cleavage kobs at 640 uM GlcN6P (glucosamine-6-phosphate [3])	self-cleavage kobs at 10000 uM GlcN6P (glucosamine-6-phosphate [4])	self-cleavage kobs at 2500 uM GlcN6P (glucosamine-6-phosphate [5])
A42G U46C A48U	< 1e-05 s⁻¹	–	–	–	–
G44A U65G	< 1e-05 s⁻¹	< 1e-05 s⁻¹	–	–	–
U47C G59U C70A	< 1e-05 s⁻¹	–	–	–	–
A42C G44C	< 1e-05 s⁻¹	< 1e-05 s⁻¹	< 1e-05 s⁻¹	< 1e-05 s⁻¹	–
U47A U56C C70G	< 1e-05 s⁻¹	–	–	–	–
G43C C58A	< 1e-05 s⁻¹	< 1e-05 s⁻¹	< 1e-05 s⁻¹	< 1e-05 s⁻¹	< 1e-05 s⁻¹
A42G G43U C70U	< 1e-05 s⁻¹	–	–	< 1e-05 s⁻¹	–
U45C C67A C70G	< 1e-05 s⁻¹	–	–	–	< 1e-05 s⁻¹
U46G U65A C70U	8.31e-05 ± 1.9e-05 s⁻¹	–	–	0.00117 ± 0.00024 s⁻¹	–
U45C G60U	< 1e-05 s⁻¹	< 1e-05 s⁻¹	< 1e-05 s⁻¹	< 1e-05 s⁻¹	–
U46C C50G	< 1e-05 s⁻¹	–	< 1e-05 s⁻¹	–	–
A42G U45C	5.93e-05 ± 2.9e-05 s⁻¹	–	–	–	–
G43A G63U	< 1e-05 s⁻¹	< 1e-05 s⁻¹	< 1e-05 s⁻¹	–	–
U46G G51U U57A C70G	4.37e-05 ± 1.9e-05 s⁻¹	–	–	–	–
G44U A52C	< 1e-05 s⁻¹	< 1e-05 s⁻¹	< 1e-05 s⁻¹	< 1e-05 s⁻¹	< 1e-05 s⁻¹
G44U U57A U69A	< 1e-05 s⁻¹	< 1e-05 s⁻¹	< 1e-05 s⁻¹	< 1e-05 s⁻¹	–
U47G A64C	< 1e-05 s⁻¹	–	–	–	–
A42C U47G	< 1e-05 s⁻¹	–	–	–	< 1e-05 s⁻¹
G43U C61A	< 1e-05 s⁻¹	< 1e-05 s⁻¹	< 1e-05 s⁻¹	< 1e-05 s⁻¹	< 1e-05 s⁻¹
G43U C61U	< 1e-05 s⁻¹	< 1e-05 s⁻¹	< 1e-05 s⁻¹	< 1e-05 s⁻¹	< 1e-05 s⁻¹
G43U C61G	< 1e-05 s⁻¹	–	< 1e-05 s⁻¹	< 1e-05 s⁻¹	< 1e-05 s⁻¹
G41U G62U	< 1e-05 s⁻¹	< 1e-05 s⁻¹	< 1e-05 s⁻¹	< 1e-05 s⁻¹	< 1e-05 s⁻¹
G44U G60C	< 1e-05 s⁻¹	< 1e-05 s⁻¹	< 1e-05 s⁻¹	< 1e-05 s⁻¹	< 1e-05 s⁻¹

Variant	self-cleavage kobs at 40 uM GlcN6P (glucosamine-6-phosphate [1])	self-cleavage kobs at 160 uM GlcN6P (glucosamine-6-phosphate [2])	self-cleavage kobs at 640 uM GlcN6P (glucosamine-6-phosphate [3])	self-cleavage kobs at 10000 uM GlcN6P (glucosamine-6-phosphate [4])	self-cleavage kobs at 2500 uM GlcN6P (glucosamine-6-phosphate [5])
A42U C68A	< 1e-05 s⁻¹	< 1e-05 s⁻¹	< 1e-05 s⁻¹	< 1e-05 s⁻¹	–
G44U C50U C67G	< 1e-05 s⁻¹	–	–	–	–
A42U G62U C71G	< 1e-05 s⁻¹	–	–	< 1e-05 s⁻¹	–
U47A C50A U54A	< 1e-05 s⁻¹	–	–	–	–
U46A U69A	< 1e-05 s⁻¹	–	5.02e-05 ± 2e-05 s⁻¹	9.26e-05 ± 1.9e-05 s⁻¹	0.00022 ± 6.2e-05 s⁻¹
G43A G62C U65C C68G	< 1e-05 s⁻¹	–	–	–	–
A42C G63A C67G	< 1e-05 s⁻¹	–	–	–	–
A42U C58A	< 1e-05 s⁻¹	< 1e-05 s⁻¹	< 1e-05 s⁻¹	–	–
G44C U55G C70U	< 1e-05 s⁻¹	–	< 1e-05 s⁻¹	–	–
G44C U46G	< 1e-05 s⁻¹	< 1e-05 s⁻¹	< 1e-05 s⁻¹	–	< 1e-05 s⁻¹
U47A U54G	0.0005 ± 0.00016 s⁻¹	–	0.0103 ± 0.0034 s⁻¹	–	0.00345 ± 0.0016 s⁻¹
U47A U54C	0.000843 ± 0.0002 s⁻¹	0.00125 ± 0.00029 s⁻¹	0.00582 ± 0.0015 s⁻¹	–	0.014 ± 0.0038 s⁻¹
G41U U45C U54G C67U C71G	< 1e-05 s⁻¹	< 1e-05 s⁻¹	< 1e-05 s⁻¹	–	–
U46G C58U	< 1e-05 s⁻¹	–	–	–	–
A42C G43U A48G G62C C67A C70G	< 1e-05 s⁻¹	–	< 1e-05 s⁻¹	–	< 1e-05 s⁻¹
G41U U46G C67U	< 1e-05 s⁻¹	< 1e-05 s⁻¹	< 1e-05 s⁻¹	–	–
U46G G63C	< 1e-05 s⁻¹	< 1e-05 s⁻¹	< 1e-05 s⁻¹	< 1e-05 s⁻¹	< 1e-05 s⁻¹
A42C A64G	< 1e-05 s⁻¹	< 1e-05 s⁻¹	< 1e-05 s⁻¹	–	–
A42U G66C	< 1e-05 s⁻¹	< 1e-05 s⁻¹	–	–	–
G43A G51A	< 1e-05 s⁻¹	< 1e-05 s⁻¹	–	< 1e-05 s⁻¹	< 1e-05 s⁻¹
G44A C71G	< 1e-05 s⁻¹	< 1e-05 s⁻¹	< 1e-05 s⁻¹	< 1e-05 s⁻¹	–
G44C A48U	< 1e-05 s⁻¹	< 1e-05 s⁻¹	< 1e-05 s⁻¹	< 1e-05 s⁻¹	< 1e-05 s⁻¹
A42G G62A	< 1e-05 s⁻¹	< 1e-05 s⁻¹	< 1e-05 s⁻¹	< 1e-05 s⁻¹	< 1e-05 s⁻¹
